S:B Expression and S:B Binding data for eight molecules are collected here from patent US20200262898A1.

In test [1] the target is Fc-binding protein (the ZZ domain of ProA). Kind of test: flow cytometry on cells expressing the Fc-binding ZZ domain on their surface; given as a measure of expression. (In general: A flow cytometer gives signals particle by particle.)
For test [2], the target named is T1, CD151 (UniProt P48509).
T1 sequence (looked up): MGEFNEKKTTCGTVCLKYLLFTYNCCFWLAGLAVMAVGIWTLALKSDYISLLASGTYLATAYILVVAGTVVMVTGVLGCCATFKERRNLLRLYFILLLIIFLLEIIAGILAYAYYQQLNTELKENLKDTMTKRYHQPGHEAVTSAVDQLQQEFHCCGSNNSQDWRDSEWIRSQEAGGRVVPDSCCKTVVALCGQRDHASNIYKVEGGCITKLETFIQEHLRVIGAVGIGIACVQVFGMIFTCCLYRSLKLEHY
Kind of test: flow cytometry on cells transfected with the target; signal over mock-transfected cells (background = 1.0).

For test [3], the target named is CD63 (UniProt P08962). The test is described as above.
Test [4] has as its target T2, IGSF8 (UniProt Q969P0).
T2 sequence (looked up): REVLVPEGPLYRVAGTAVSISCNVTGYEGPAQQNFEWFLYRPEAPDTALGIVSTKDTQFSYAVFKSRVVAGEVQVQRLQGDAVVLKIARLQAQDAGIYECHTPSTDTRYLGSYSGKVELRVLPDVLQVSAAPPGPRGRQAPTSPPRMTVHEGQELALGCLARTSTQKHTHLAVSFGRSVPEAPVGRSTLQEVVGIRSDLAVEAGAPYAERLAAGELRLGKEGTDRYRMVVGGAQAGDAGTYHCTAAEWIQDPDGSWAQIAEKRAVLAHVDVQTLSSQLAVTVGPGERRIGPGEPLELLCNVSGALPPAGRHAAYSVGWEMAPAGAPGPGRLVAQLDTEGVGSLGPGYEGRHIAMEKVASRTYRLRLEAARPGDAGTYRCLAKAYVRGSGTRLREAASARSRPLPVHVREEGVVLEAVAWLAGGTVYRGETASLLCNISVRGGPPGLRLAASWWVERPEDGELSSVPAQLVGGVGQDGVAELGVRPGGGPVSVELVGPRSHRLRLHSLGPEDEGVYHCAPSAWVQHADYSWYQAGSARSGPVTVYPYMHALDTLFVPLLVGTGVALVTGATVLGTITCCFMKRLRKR
Described as above.

Test [5] addresses T3, CD81 (UniProt P60033).
T3 sequence (looked up): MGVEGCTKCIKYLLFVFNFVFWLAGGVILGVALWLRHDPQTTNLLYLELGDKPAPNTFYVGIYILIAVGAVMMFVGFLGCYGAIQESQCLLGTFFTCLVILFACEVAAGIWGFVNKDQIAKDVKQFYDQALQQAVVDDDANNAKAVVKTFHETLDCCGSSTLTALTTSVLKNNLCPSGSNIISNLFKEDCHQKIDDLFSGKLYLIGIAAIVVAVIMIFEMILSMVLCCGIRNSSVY
The test is described as above.

Test [6] concerns the target T4, CD59 (UniProt P13987).
T4 sequence (looked up): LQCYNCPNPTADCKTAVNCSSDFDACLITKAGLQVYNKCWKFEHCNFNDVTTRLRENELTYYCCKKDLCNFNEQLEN
Described as above.

Test [7] concerns the target CD147 (UniProt P35613). The description is as above.

B1: Antibody of common light chain F10 (F10chicken) paired with the heavy chain against CD151 (antibody, V domains shown)
VH: AVTLDESGGGLQMPGGALSLVCKASGFTFSSYGMEWVRQAPGKGLEWVAGISSGGGSTDYGTAVKGRATISRDNGQSTVRLQLNNLRAEDTGTYFCAKSAYGGTWDGDDIDAWGHGTEVIVSS
VL: ALTQPSSVSANPGETVKITCSGGYNGHYGWYQQKSPGSAPVTVIYSNNQRPSNIPSRFSGSTSGSTSTLTITGVRAEDEAVYFCGGYDSSAGIFGAGTTLTVL
With B1, in test [1], the S:B Expression is 13.7 S:B. Further, in test [2], the S:B Binding was 25.1 S:B.

B2: Antibody of common light chain F10 (F10chicken) paired with the heavy chain against CD63 (antibody, V domains shown)
VH: AVTLDESGGGLQTPGGALSLVCKASGFTFSDRGMHWVRQAPGKGLEWVAGIRSTGSFTLYGAAVKGRATISRDDGQSTLRLQLNNLRAEDTGTYYCAKSAGGYGCGRGWCGVDDIDAWGHGTEVIVSS
VL: ALTQPSSVSANPGETVKITCSGGYNGHYGWYQQKSPGSAPVTVIYSNNQRPSNIPSRFSGSTSGSTSTLTITGVRAEDEAVYFCGGYDSSAGIFGAGTTLTVL
Turning to B2, in test [1], the S:B Expression was 15.5 S:B. The S:B Binding in test [3] was 5.2 S:B.

B3: Antibody of common light chain F10 (F10chicken) paired with the heavy chain against IGSF8 (antibody, V domains shown)
VH: AVTLDESGGGLQTPGGGLSLVCKASGFSISSYEMQWVRQAPGKGLEWVAGIDDDGSSRAYAPAVKGRATISRDNGQSTVRLQLNNLRAEDTGTYYCAKTIYAATLNAGEIDAWGHGTEVIVSS
VL: ALTQPSSVSANPGETVKITCSGGYNGHYGWYQQKSPGSAPVTVIYSNNQRPSNIPSRFSGSTSGSTSTLTITGVRAEDEAVYFCGGYDSSAGIFGAGTTLTVL
Consider B3, for which the S:B Expression in test [1] was 11.9 S:B. Besides, the S:B Binding in test [4] is 1.6 S:B.

B4: Antibody of common light chain F10 (F10chicken) paired with the heavy chain against CD81 (antibody, V domains shown)
VH: AVTLDESGGGLQTPGGALSLVCKASGFSIGDYNMGWVRQAPGKGLEWVAGIDAGGGTWRATAVKGRATISRDNGQSTVRLQLNNLRAEDTATYFCAKSTDSSANCCANSIDAWGHGTEVIVSS
VL: ALTQPSSVSANPGETVKITCSGGYNGHYGWYQQKSPGSAPVTVIYSNNQRPSNIPSRFSGSTSGSTSTLTITGVRAEDEAVYFCGGYDSSAGIFGAGTTLTVL
For B4, in test [1], the S:B Expression was 11.1 S:B. For the same molecule, in test [5], the S:B Binding was 0.4 S:B.

B5: Antibody of common light chain F10 (F10chicken) paired with the heavy chain against CD59 (antibody, V domains shown)
VH: AVTLDESGGGLQTPGGGLSLVCKASGFDFSSFDMVWVRQAPGKGLEWVAGISYSNTDTSYAPAVDGRATISRDNGQSTVRLQLNNLRAEDSATYYCAKSAGGCCYRADNIDAWGHGTEVIVSS
VL: ALTQPSSVSANPGETVKITCSGGYNGHYGWYQQKSPGSAPVTVIYSNNQRPSNIPSRFSGSTSGSTSTLTITGVRAEDEAVYFCGGYDSSAGIFGAGTTLTVL
For the molecule B5, the S:B Expression in test [1] is 12.2 S:B. Moreover, the S:B Binding in test [6] was 14.6 S:B.

B6: Antibody of common light chain C11 (C11chicken) paired with the heavy chain against CD147 (antibody, V domains shown)
VH: AVTLDESGGGLQTPGGGLSLVCKASGFTFSSYAMYWVRQAPGKGLQWVAGISRDGSSGRYGAAVKGRATISRDNGQSTVRLQLNNLRAEDTATYFCAKSGYGDYTSADEIDAWGHGTEVIVSS
VL: ALTQPSSVSANPGETVKITCSGGGSWYGSYYYGWYQQKSPGSAPVTLIYNNDKRPSDIPSRFSGSESGSTATLTITGVQAEDEAVYFCGGYDSTTTDMFGAGTTLTVL
For B6, the S:B Binding in test [7] was 1.4 S:B.

B7: Antibody of common light chain B9 (B9chicken) paired with the heavy chain against CD147 (antibody, V domains shown)
VH: AVTLDESGGGLQTPGGGLSLVCKASGFTFSSYAMYWVRQAPGKGLQWVAGISRDGSSGRYGAAVKGRATISRDNGQSTVRLQLNNLRAEDTATYFCAKSGYGDYTSADEIDAWGHGTEVIVSS
VL: ALTQPSSVSANPGETVKITCSGGGSSNYYGWYQQKSPGSAPVTLIYGTNKRPSDIPSRFSGSKSGSTGTLTITGVQADDEAVYFCGSADSSTNAGIFGAGTTLTVL
In the case of B7, the S:B Binding in test [7] was 10.3 S:B.

B8: Antibody of common light chain F10 (F10chicken) paired with the heavy chain against CD147 (antibody, V domains shown)
VH: AVTLDESGGGLQTPGGGLSLVCKASGFTFSSYAMYWVRQAPGKGLQWVAGISRDGSSGRYGAAVKGRATISRDNGQSTVRLQLNNLRAEDTATYFCAKSGYGDYTSADEIDAWGHGTEVIVSS
VL: ALTQPSSVSANPGETVKITCSGGYNGHYGWYQQKSPGSAPVTVIYSNNQRPSNIPSRFSGSTSGSTSTLTITGVRAEDEAVYFCGGYDSSAGIFGAGTTLTVL
For the molecule B8, the S:B Expression in test [1] was 15.5 S:B. In test [7], the S:B Binding is 5.7 S:B.
